# Reference: paper PMC6000670 (2018)
# B1: Sti1 (protein)
# chain: MSLTADEYKQQGNAAFTAKDYDKAIELFTKAIEVSETPNHVLYSNRSACYTSLKKFSDALNDANECVKINPSWSKGYNRLGAAHLGLGDLDEAESNYKKALELDASNKAAKEGLDQVHRTQQARQAQPDLGLTQLFADPNLIENLKKNPKTSEMMKDPQLVAKLIGYKQNPQAIGQDLFTDPRLMTIMATLMGVDLNMDDINQSNSMPKEPETSKSTEQKKDAEPQSDSTTSKENSSKAPQKEESKESEPMEVDEDDSKIEADKEKAEGNKFYKARQFDEAIEHYNKAWELHKDITYLNNRAAAEYEKGEYETAISTLNDAVEQGREMRADYKVISKSFARIGNAYHKLGDLKKTIEYYQKSLTEHRTADILTKLRNAEKELKKAEAEAYVNPEKAEEARLEGKEYFTKSDWPNAVKAYTEMIKRAPEDARGYSNRAAALAKLMSFPEAIADCNKAIEKDPNFVRAYIRKATAQIAVKEYASALETLDAARTKDAEVNNGSSAREIDQLYYKASQQRFQPGTSNETPEETYQRAMKDPEVAAIMQDPVMQSILQQAQQNPAALQEHMKNPEVFKKIQTLIAAGIIRTGR
# modifications: Hsp90 in complex with LA1011 (1 mM)
# Biological target: Hsp90 (Saccharomyces cerevisiae, UniProt P02829)
# Experiment: ITC
# Sequence of Hsp90 (P02829 whole entry): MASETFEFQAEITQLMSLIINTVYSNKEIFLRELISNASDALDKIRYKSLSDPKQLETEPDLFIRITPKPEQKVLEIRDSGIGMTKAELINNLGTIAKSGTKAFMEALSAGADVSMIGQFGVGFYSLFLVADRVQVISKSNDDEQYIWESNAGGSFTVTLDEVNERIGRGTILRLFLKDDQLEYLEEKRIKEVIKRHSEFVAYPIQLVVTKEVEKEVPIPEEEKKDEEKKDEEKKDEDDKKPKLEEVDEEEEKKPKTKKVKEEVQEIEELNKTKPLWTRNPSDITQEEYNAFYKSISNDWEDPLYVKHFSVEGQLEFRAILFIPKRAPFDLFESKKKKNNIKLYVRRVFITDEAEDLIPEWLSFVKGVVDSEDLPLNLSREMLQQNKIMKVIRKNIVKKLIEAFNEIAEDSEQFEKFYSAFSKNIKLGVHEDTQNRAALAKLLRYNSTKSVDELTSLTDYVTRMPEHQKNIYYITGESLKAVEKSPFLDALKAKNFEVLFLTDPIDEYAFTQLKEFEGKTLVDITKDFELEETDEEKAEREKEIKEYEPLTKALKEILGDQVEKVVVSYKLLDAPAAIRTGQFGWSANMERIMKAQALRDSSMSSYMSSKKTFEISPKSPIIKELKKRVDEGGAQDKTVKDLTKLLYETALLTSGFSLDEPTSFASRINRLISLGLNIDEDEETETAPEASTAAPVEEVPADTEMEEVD
binder,measurement,value
B1,Kd,320 nM
